Starred links: 1 amine or outer side, 2 acyl side, 3 side chain; linkers in the order of their positions; H or OH if unused. Positions of bridges follow the written chain, without caps; N, C: chain ends. Non-standard residues stand in square brackets, D forms with d. No end group written: not given here. 1Nal = N[C@@H](Cc1cccc2ccccc12)C(=O)O; TBMB = c1c(C[*:1])cc(C[*:3])cc1C[*:2]; Gly(cPent) = N[C@H](C(=O)O)C1CCCC1; hArg = N=C(N)NCCCC[C@H](N)C(=O)O; Tle = CC(C)(C)[C@H](N)C(=O)O; Aib = CC(C)(N)C(=O)O; βAla = NCCC(=O)O; Sar = CNCC(=O)O

In general, Ki refers to the dissociation constant of the complex between target and ligand, obtained from inhibition or displacement.

The target in one assay is T1, Human EphA2 (Ecto) (Human, UniProt P29317 24-537).
T1 construct: extracellular domain
T1 sequence (P29317 24-537): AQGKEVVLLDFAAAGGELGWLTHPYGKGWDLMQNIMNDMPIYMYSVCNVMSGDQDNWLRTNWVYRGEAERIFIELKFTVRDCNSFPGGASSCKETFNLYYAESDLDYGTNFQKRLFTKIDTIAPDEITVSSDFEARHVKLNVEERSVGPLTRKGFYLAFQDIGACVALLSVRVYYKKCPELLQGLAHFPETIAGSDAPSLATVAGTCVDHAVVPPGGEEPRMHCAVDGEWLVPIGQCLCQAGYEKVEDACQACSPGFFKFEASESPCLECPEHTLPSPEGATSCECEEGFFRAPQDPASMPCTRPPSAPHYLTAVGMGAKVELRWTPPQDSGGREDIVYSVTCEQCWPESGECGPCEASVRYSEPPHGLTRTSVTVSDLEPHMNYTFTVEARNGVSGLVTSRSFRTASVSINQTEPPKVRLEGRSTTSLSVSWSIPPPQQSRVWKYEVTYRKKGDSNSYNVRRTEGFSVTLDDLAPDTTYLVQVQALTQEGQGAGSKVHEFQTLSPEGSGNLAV
As to the kind of experiment: FP competition, tracer Compound 66.
Take [Sar][Sar]ACPWGPFWCPVNAPGC (linker 4-11-18 via TBMB) [Bicycle Compound 293]: the Ki stood at 711 nM.

[Sar][Sar]ACAWGPFWCPVNRPGC (linker 4-11-18 via TBMB) [Bicycle Compound 286] registered a Ki of 886 nM. This Ki and that of the molecule before are within 1.5-fold of each other.

Take [Sar][Sar]ACPW[dA]PFWCPVNRPGC (linker 4-11-18 via TBMB) [Bicycle Compound 296]: the Ki amounted to 1000 nM.

Molecule [Sar][Sar]ACPWGPFWCPANRPGC (linker 4-11-18 via TBMB) [Bicycle Compound 292] came in with an inhibition constant (Ki) of 954 nM.

The molecule [Sar][Sar]ACPWGPFWCPVARPGC (linker 4-11-18 via TBMB) [Bicycle Compound 101] displayed an inhibitory constant (Ki) of 265 nM.

The target in the next assay is Human EphA2 (Ecto) (Human) (UniProt P29317). As to the kind of experiment: FP competition, tracer Compound 18.
Human EphA2 (Ecto) (Human), sequence (P29317 24-537): as above
Turning to Ac-[Sar][Sar]H[dD]VTCP[1Nal]G[Aib]F[1Nal]CP[Tle]NR[Aib]GC (linker 7-14-21 via TBMB) [Bicycle Compound 285], the Ki is 1.21 nM.

[βAla][Sar][Sar][Sar][Sar][Sar][Sar][Sar][Sar][Sar][Sar]H[dD][Gly(cPent)]TCP[1Nal]G[Aib]F[1Nal]CP[Tle]NR[Aib]GC (linker 16-23-30 via TBMB) [Bicycle Compound 279] gave a Ki of 0.59 nM. This Ki lies about 2.1-fold lower than the previous one.

Take [βAla][Sar][Sar][Sar][Sar][Sar][Sar][Sar][Sar][Sar][Sar]H[dD]VPCP[1Nal]G[Aib][hArg][1Nal]CP[Tle]N[hArg]P[dD]C (linker 16-23-30 via TBMB) [Bicycle Compound 251]: the Ki is 1.93 nM. Compared with the last molecule, the Ki is about 3.3-fold higher.

With [βAla][Sar][Sar][Sar][Sar][Sar][Sar][Sar][Sar][Sar][Sar]H[dD]VPC[Aib][1Nal]G[Aib]F[1Nal]CP[Tle]N[hArg]PGC (linker 16-23-30 via TBMB) [Bicycle Compound 235], the Ki was 2.58 nM.

The molecule [βAla][Sar][Sar][Sar][Sar][Sar][Sar][Sar][Sar][Sar][Sar]H[dD]VPCPWGP[hArg]WCP[Tle]N[hArg]P[dD]C (linker 16-23-30 via TBMB) [Bicycle Compound 272] came in with a Ki of 3.99 nM. Against the preceding molecule, the Ki is about 1.5-fold higher.

As for [βAla][Sar][Sar][Sar][Sar][Sar][Sar][Sar][Sar][Sar][Sar]H[dD]VPC[Aib][1Nal]G[Aib]F[1Nal]CP[Tle]N[hArg][Aib][dD]C (linker 16-23-30 via TBMB) [Bicycle Compound 238], the Ki worked out at 2.83 nM.

Take Ac-[Sar][Sar]H[dD]VPCP[1Nal]G[Aib]F[1Nal]CP[Tle]N[hArg]PGC (linker 7-14-21 via TBMB) [Bicycle Compound 253]: the Ki was 0.85 nM.

As to [βAla][Sar][Sar][Sar][Sar][Sar][Sar][Sar][Sar][Sar][Sar]H[dD]VPCPWG[Aib]FWCP[Tle]N[hArg]P[dD]C (linker 16-23-30 via TBMB) [Bicycle Compound 271], the Ki was 3.66 nM.

On to [βAla][Sar][Sar][Sar][Sar][Sar][Sar][Sar][Sar][Sar][Sar]H[dD]VPCP[1Nal]G[Aib]FWCP[Tle]N[hArg]P[dD]C (linker 16-23-30 via TBMB) [Bicycle Compound 265], for which the Ki worked out at 1.55 nM.

The molecule Ac-[Sar][Sar]A[dD]VTCP[1Nal]G[Aib]F[1Nal]CP[Tle]N[hArg]P[dD]C (linker 7-14-21 via TBMB) [Bicycle Compound 184] yielded a Ki of 1.19 nM.

As for [βAla][Sar][Sar][Sar][Sar][Sar][Sar][Sar][Sar][Sar][Sar]H[dD]VPC[Aib][1Nal]G[Aib]F[1Nal]CP[Tle]NRPGC (linker 16-23-30 via TBMB) [Bicycle Compound 234], the Ki is 3.94 nM.

Ac-[Sar][Sar]A[dH]DVPCP[1Nal]G[Aib]F[1Nal]CP[Tle]NR[Aib]GC (linker 8-15-22 via TBMB) [Bicycle Compound 232] gave a Ki of 0.9 nM.

[βAla][Sar][Sar][Sar][Sar][Sar][Sar][Sar][Sar][Sar][Sar]H[dD]VPCP[1Nal]G[Aib]F[1Nal]CP[Tle]N[hArg]PGC (linker 16-23-30 via TBMB) [Bicycle Compound 257] yielded a Ki of 1.07 nM. This Ki and that of the molecule before are within 1.5-fold of each other.

[βAla][Sar][Sar][Sar][Sar][Sar][Sar][Sar][Sar][Sar][Sar]H[dD]VPCP[1Nal]G[Aib]F[1Nal]CP[Tle]NRPGC (linker 16-23-30 via TBMB) [Bicycle Compound 252] gave a Ki of 0.37 nM.

Molecule [βAla][Sar][Sar][Sar][Sar][Sar][Sar][Sar][Sar][Sar][Sar]H[dD]VPC[Aib]WGP[hArg]WCP[Tle]N[hArg]P[dD]C (linker 16-23-30 via TBMB) [Bicycle Compound 247] had a Ki of 29.7 nM.

Molecule [βAla][Sar][Sar][Sar][Sar][Sar][Sar][Sar][Sar][Sar][Sar]H[dD]VPC[Aib][1Nal]GP[hArg][1Nal]CP[Tle]NR[Aib]GC (linker 16-23-30 via TBMB) [Bicycle Compound 243] displayed a Ki of 2.83 nM.

As to [βAla][Sar][Sar][Sar][Sar][Sar][Sar][Sar][Sar][Sar][Sar]H[dD]VPC[dA][1Nal]G[Aib]F[1Nal]CP[Tle]N[hArg]P[dD]C (linker 16-23-30 via TBMB) [Bicycle Compound 248], the Ki turned out to be 28.4 nM.

For [βAla][Sar][Sar][Sar][Sar][Sar][Sar][Sar][Sar][Sar][Sar]H[dD]VPCPWG[Aib]F[1Nal]CP[Tle]N[hArg]P[dD]C (linker 16-23-30 via TBMB) [Bicycle Compound 269], the Ki came out at 1.11 nM. This Ki lies about 26-fold lower than the previous one.

With [βAla][Sar][Sar][Sar][Sar][Sar][Sar][Sar][Sar][Sar][Sar]H[dD][Gly(cPent)]PCP[1Nal]G[Aib]F[1Nal]CP[Tle]NR[Aib]GC (linker 16-23-30 via TBMB) [Bicycle Compound 278], the inhibition constant Ki was determined as 0.46 nM. This Ki is about 2.4-fold lower than that of the molecule before.

Molecule Ac-[Sar][Sar]A[dH]DVPCP[1Nal]G[Aib]F[1Nal]CP[Tle]N[hArg]PGC (linker 8-15-22 via TBMB) [Bicycle Compound 231] showed a Ki of 1.93 nM.

Take [βAla][Sar][Sar][Sar][Sar][Sar][Sar][Sar][Sar][Sar][Sar]H[dD]VPC[Aib][1Nal]GP[hArg][1Nal]CP[Tle]N[hArg]P[dD]C (linker 16-23-30 via TBMB) [Bicycle Compound 244]: the Ki amounted to 2.8 nM. This Ki and that of the molecule before are within 1.5-fold of each other.

For the molecule [βAla][Sar][Sar][Sar][Sar][Sar][Sar][Sar][Sar][Sar][Sar]H[dD][Gly(cPent)]TCP[1Nal]G[Aib]F[1Nal]CP[Tle]N[hArg]P[dD]C (linker 16-23-30 via TBMB) [Bicycle Compound 280], the inhibition constant Ki came out at 0.64 nM.

For the molecule [βAla][Sar][Sar][Sar][Sar][Sar][Sar][Sar][Sar][Sar][Sar]H[dD]VPCP[1Nal]G[Aib][hArg][1Nal]CP[Tle]NR[Aib][dD]C (linker 16-23-30 via TBMB) [Bicycle Compound 250], the inhibitory constant (Ki) turned out to be 1.48 nM.

Take [βAla][Sar][Sar][Sar][Sar][Sar][Sar][Sar][Sar][Sar][Sar]H[dD][Gly(cPent)]PC[Aib]WG[Aib]FWCP[Tle]NR[Aib][dD]C (linker 16-23-30 via TBMB) [Bicycle Compound 275]: the Ki came out at 15.9 nM.

Ac-[Sar][Sar]A[dD]VTCP[1Nal]G[Aib]F[1Nal]CP[Tle]NR[Aib]GC (linker 7-14-21 via TBMB) [Bicycle Compound 183]: the Ki stood at 1.02 nM.

As for [βAla][Sar][Sar][Sar][Sar][Sar][Sar][Sar][Sar][Sar][Sar]H[dD]VPC[Aib]WGP[hArg]WCP[Tle]N[hArg]P[dD]C (linker 16-23-30 via TBMB) [Bicycle Compound 246], the inhibition constant (Ki) turned out to be 31.4 nM.

The molecule [βAla][Sar][Sar][Sar][Sar][Sar][Sar][Sar][Sar][Sar][Sar]H[dD]VPC[Aib][1Nal]G[Aib]FWCP[Tle]N[hArg]P[dD]C (linker 16-23-30 via TBMB) [Bicycle Compound 242] gave a Ki of 7.77 nM.

With [βAla][Sar][Sar][Sar][Sar][Sar][Sar][Sar][Sar][Sar][Sar]H[dD]VPC[Aib][1Nal]G[Aib]F[1Nal]CP[Tle]NR[Aib]GC (linker 16-23-30 via TBMB) [Bicycle Compound 239], the Ki came out at 4.91 nM. This Ki lies about 1.6-fold lower than the previous one.

Regarding [βAla][Sar][Sar][Sar][Sar][Sar][Sar][Sar][Sar][Sar][Sar]H[dD]VPCP[1Nal]G[Aib]F[1Nal]CP[Tle]N[hArg][Aib][dD]C (linker 16-23-30 via TBMB) [Bicycle Compound 259], the Ki turned out to be 0.91 nM. This Ki lies about 5.4-fold lower than the previous one.

For the molecule [βAla][Sar][Sar][Sar][Sar][Sar][Sar][Sar][Sar][Sar][Sar]H[dD]VPCP[1Nal]G[Aib][hArg][1Nal]CP[Tle]NR[Aib]GC (linker 16-23-30 via TBMB) [Bicycle Compound 249], the inhibition constant Ki came out at 1.38 nM.

These data come from patent US11814447B2, “Peptide ligands for binding to EphA2” (BICYCLERD LIMITED, priority 2018, dated 2023).
